Entries after “also recorded” stand apart in the source; their conditions may differ.
Assays:
[1] = test system: RM-1; assay: In vivo efficacy in RM-1 prostate cancer model
Experimental: (§1) For the efficacy studies, C57BL/6 or BALB/c mice were subcutaneously inoculated with malignant cells and when the average tumor volume reached on average 90 mm^3, animals were randomized into 2 groups based on tumor volumes (n=10 mice per treatment group). Mice were dosed intravenously every 3 days (Q3D) at 20 mg/kg. Tumors, body weights and clinical observations were measured/collected twice a week for the duration of the study. Tumor volume is shown in FIGS. 10A-D, 11A, 12A, and 13B-C. […] Liver and kidney enzyme results corresponding to FIGS. 11A and 12A are shown in FIGS. 11B-D and 12B-D, respectively.

[2] = target: T1, MMP9 (Mus musculus, UniProt P41245); assay: Cleavage of fusion protein by MMP9 protease (SDS-PAGE / Western blot); type: biochemical
T1 construct: purchased R&D Systems
T1 sequence (P41245 108-730): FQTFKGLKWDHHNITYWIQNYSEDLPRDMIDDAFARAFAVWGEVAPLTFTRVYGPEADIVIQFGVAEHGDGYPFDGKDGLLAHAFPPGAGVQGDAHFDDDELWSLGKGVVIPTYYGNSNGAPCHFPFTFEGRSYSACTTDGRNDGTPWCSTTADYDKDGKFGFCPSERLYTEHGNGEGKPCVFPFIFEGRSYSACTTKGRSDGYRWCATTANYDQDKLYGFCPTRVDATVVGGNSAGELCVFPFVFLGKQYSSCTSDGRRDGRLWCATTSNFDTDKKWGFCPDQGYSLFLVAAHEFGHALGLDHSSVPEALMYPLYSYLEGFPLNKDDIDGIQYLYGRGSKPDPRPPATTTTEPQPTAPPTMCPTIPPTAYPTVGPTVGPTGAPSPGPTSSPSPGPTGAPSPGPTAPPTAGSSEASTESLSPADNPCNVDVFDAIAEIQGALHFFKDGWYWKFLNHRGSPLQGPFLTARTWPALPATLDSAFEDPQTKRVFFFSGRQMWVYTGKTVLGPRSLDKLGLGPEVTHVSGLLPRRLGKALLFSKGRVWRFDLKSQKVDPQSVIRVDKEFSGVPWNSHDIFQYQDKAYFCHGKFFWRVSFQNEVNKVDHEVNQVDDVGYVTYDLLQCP
Experimental: (§2) Recombinant MMP9 and/or MMP2 (R&D Systems) was first activated with p-aminophenylmercuric acetate and this activated protease or equivalent amount of activating solution without the protease was used to digest or mock digest the fusion protein for 1 hr, 2 hr, 4 hr and overnight (18-22 hr) at 37 C. Cleavage assays are set up in TCNB buffer: 50 mM Tris, 10 mM CaCl2), 150 mM NaCl, 0.05% Brij-35 (w/v), pH 7.5. Digested protein was aliquoted and stored at −80° C. prior to testing. Aliquots of digests were subsequently analyzed by SDS-PAGE followed by Western blotting to evaluate the extent of cleavage. Digests were also assessed in functional assays such as CTLL-2 proliferation and HEK-Blue Interleukin reporter assays. As shown in FIGS. 2A-E, essentially complete cleavage by MMP9 protease of the fusion proteins with functional site is seen after overnight incubation. In contrast, proteins containing a scrambled MMP cleavage site are not cut (FIG. 2E).
Untreated and digested fusion proteins were evaluated for cleavage products by Western blot. The following monoclonal antibodies were used: rat anti-mouse IL-2 antibody (JES6-1A12; ThermoFisher), goat anti-mouse IL-2 polyclonal antibody (AF-402-NA; R&D systems), mouse anti-6xHis monoclonal antibody (MA1-21315, ThermoFisher), Anti-mIgG Fc HRP conjugated (ThermoFisher cat #A16084), and Anti-human IL2 antibody (Invitrogen, cat #MA5-17097, mouse IgG1). Detection was performed using either a goat anti-rat HRP-conjugated antibody, Donkey Anti-goat HRP-conjugated antibody or Goat Anti-mouse HIRP conjugated (Jackson Immuno Research, West Grove, PA) and developed using the SuperSignal West Femto Maximum sensitivity detection reagent (ThermoFisher) following the manufacturer's recommendations.

[3] = test system: B16F10; assay: In vivo efficacy in B16F10 melanoma model (Example 12)
Experimental: as §1

[4] = test system: MC38 tumor; assay: Systemic IV injection in syngeneic MC38 colorectal cancer model; type: in vivo
Experimental: The objective of this study is to evaluate efficacy of Construct B in the MC38-bearing female C57BL/6 mice. For this study, C57BL/6 6-8 weeks old female mice (Jackson Labs) were subcutaneously inoculated with MC38 cells (10^6 cells/animal), and when the average tumor volume reached about 80 mm^3, animals were randomized into 2 groups based on tumor volumes (8 mice per treatment group). Animals were dosed according to the following study design:
Mice were dosed over a 21 day period then further observed for an additional week.

[5] = test system: heparin; assay: IL-2 fusion protein plate binding assay to Heparin-BSA conjugate
Experimental: 96-well plates were coated with 25 ug/mL of Heparin-BSA conjugate (provided by Dr. Mueller, Boerhinger Ingelheim) or control BSA for 18-22 h at room temperature on shaker (350 rpm). After washing, wells are blocked with PBS-0.05% Tween 20/1% BSA for 90 min, then fusion proteins are titrated in 1% BSA/PBS-0.05% Tween 20 pH 7.5 and/or pH 6 and added for 2 hr at room temperature with shaking. After washing, an anti-mouse IL-2 biotin-labelled detection antibody (JES6-5H4, ThermoFisher) is added and binding is detected using Ultra Strepavidin HIRP (ThermoFisher). The plate was developed by adding the chromogenic tetramethylbenzidine substrate (Ultra TMB, ThermoFisher). The reaction is stopped by addition of 0.5M H2SO4 and the absorbance is read at 450-650 nm.

[6] = test system: CTLL-2 cells; assay: CTLL-2 proliferation assay (MTT); type: cell-based
Experimental: as §2
IL-2 activity was measured using either CTLL-2 cells (ATCC) or the reporter cell line HEK Blue IL2 (Invivogen, San Diego). In brief, for the CTLL-2 assay a titration of untreated and digested samples is added to 40 000 CTLL-2 cells per well in 100 ul medium in a 96-well plate and incubated at 37C in 5% CO2 for 18-22 hr. At the end of this period, 50ug/well Thiazolyl Blue Tetrazolium Bromide (MTT) (Sigma-Aldrich) was added and the plate was incubated for 5 hr at 37C in 5% CO2. Cells were lysed with 100 µl/well 10% SDS (Sigma) acidified with HCl, incubated at 37C for 4 hr, and absorbance was read at 570 nm. Recombinant human or mouse IL-2 (Peprotech and R&D systems respectively) was used as a positive control. FIGS. 3A-B, 3K-L and 3N-P show examples of untreated and digested fusion proteins evaluated in CTLL-2 proliferation assay.

B1: Construct B: SEQ ID NO 101: m IL2-2x(SG4)-MMPcs1-2x(G4S)-IL2Ralpha-mIgG1 Fc (protein)
chain: APTSSSTSSSTAEAQQQQQQQQQQQQHLEQLLMDLQELLSRMENYRNLKLPRMLTFKFYLPKQATELKDLQCLEDELGPLRHVLDLTQSKSFQLEDAENFISNIRVTVVKLKGSDNTFECQFDDESATVVDFLRRWIAFCQSIISTSPQSGGGGSGGGGGPLGVRGGGGGSGGGGSELCLYDPPEVPNATFKALSYKNGTILNCECKRGFRRLKELVYMRCLGNSWSSNCQCTSNSHDKSRKQVTAQLEHQKEQQTTTDMQKPTQSMHQENLTGHCREPPPWKHEDSKRIYHFVEGQSVHYECIPGYKALQRGPAISICKMKCGKTGWTQPQLTCVDEREHHRFLASEESQGSRNSSPESETSCPITTTDFPQPTETTAMTETFVLTMEYKGCKPCICTVPEVSSVFIFPPKPKDVLTITLTPKVTCVVVDISKDDPEVQFSWFVDDVEVHTAQTQPREEQFNSTFRSVSELPIMHQDWLNGKEFKCRVNSAAFPAPIEKTISKTKGRPKAPQVYTIPPPKEQMAKDKVSLTCMITDFFPEDITVEWQWNGQPAENYKNTQPIMDTDGSYFVYSKLNVQKSNWEAGNTFTCSVLHEGLHNHHTEKSLSHSPGK
- signs of toxicity (body weight loss, liver and/or kidney enzymes, clinical observations) ([1]; RM-1 model, 20 mg/kg IV Q3D): no signs of toxicity
- Max TGI % ([1]; RM_1, C57BL/6, 20 mpk IV Q3D, D10): 58%
- full-length cytokine prodrug remaining ([2]; 20 hour +MMP time point): only a faint band
- time at which cleavage product was detectable ([2]; +MMP-9 digestion, Western blot): 1 h
- Max TGI % ([3]; B16F10, C57BL/6, 20 mpk IV Q3D, D12): 49%
- signs of toxicity (body weight loss, liver and/or kidney enzymes, clinical observations) ([3]; B16F10 model, 20 mg/kg IV Q3D): no signs of toxicity
- adverse effect / systemic toxicity ([4]; 10 mpk IV Q3D for 21 D): Essentially no systemic toxicity; also recorded: no adverse effect
- mouse body weight during treatment ([4]; 10 mpk IV Q3D for 21 D): substantially constant
- tumor growth (qualitative) ([4]; IV Q3D, eight administrations, vs vehicle): virtually no tumor growth after initiation of treatment
- inhibition of tumor growth / Max TGI % ([4]; MC-38, C57BL/6, 10 mpk IV Q3D, Day 21): 92%
- complete tumor regressions ('cures') ([4]; out of 8 cases, 10 mpk IV Q3D for 21 D): 3
- heparin binding EC50 relative to Construct CC ([5]; fold higher EC50 value): > 100 fold
- heparin binding (qualitative) ([5]; pH 6 vs pH 7.5, plate assay): much weaker
- CTLL-2 cell proliferation, MMP-9 treated construct ([6]; cleaved by MMP-9): stimulates CTLL-2 cell proliferation in a dose dependent manner
- CTLL-2 cell proliferation, uncleaved construct ([6]; uncleaved): minimally stimulatory
